{"source": "paper doi:10.1101/2024.05.23.595491", "about": "(bioRxiv, 2024)", "binders": {"B1": {"name": "GST-mGFP-SH3BP2-FLAG (natural protein)", "chain": "MAAEEMQWPVPMKAIGAQNLLTMPGGVAKAGYLHKKGGTQLQLLKWPLRFVIIHKRCIYYFKSSTSASPQGAFSLSGYNRVMRAAEETTSNNVFPFKIIHISKKHRTWFFSASSEDERKSWMAFVRREIGHFHEKKELPLDTSDSSSDTDSFYGAVERPIDISLSSYPMDNEDYEHEDEDDSYLEPDSPGPMKLEDALTYPPAYPPPPVPVPRKPAFSDLPRAHSFTSKSPSPLLPPPPPKRGLPDTGSAPEDAKDALGLRRVEPGLRVPATPRRMSDPPMSNVPTVPNLRKHPCFRDSVNPGLEPWTPGHGTSSVSSSTTMAVATSRNCDKLKSFHLSSRGPPTSEPPPVPANKPKFLKIAEEPSPREAAKFAPVPPVAPRPPVQKMPMPEATVRPAVLPRPENTPLPHLQRSPPDGQSFRGFSFEKARQPSQADTGEEDSDEDYEKVPLPNSVFVNTTESCEVERLFKATDPRGEPQDGLYCIRNSSTKSGKVLVVWDESSNKVRNYRIFEKDSKFYLEGEVLFASVGSMVEHYHTHVLPSHQSLLLRHPYGYAGPR"}, "B2": {"name": "GST-cytAChRα (domain or fragment)", "chain": "NTHHRSPSTHIMPEWVRKVFIDTIPNIMFFSTMKRPSRDKQEKRIFTEDIDISDISGKPGPPPMGFHSPLIKHPEVKSAIEGVKYIAETMKSDQESNNAAEEWKYVAMVMDH"}, "B3": {"name": "GST-cytAChRα-mCherry (domain or fragment)", "chain": "B2 chain"}}, "key": {"sedimentation assay": {"biological_target": "the molecule itself", "assay": "sedimentation assay"}, "[1]": {"biological_target": "T1, SH3BP2-FLAG (full-length) (mouse, UniProt Q06649 1-559)", "T1 sequence": "B1 chain", "assay": "co-IP"}, "GST-mGFP-SH3BP2-FLAG": {"biological_target": "B1", "assay": "recruitment into protein droplets"}}}
{"binder": "B1", "values": [{"measurement": "binding result", "setting": "sedimentation assay", "value": "binds"}]}
{"binder": "B2", "values": [{"measurement": "binding result", "setting": "[1]", "value": "binds"}]}
{"binder": "B3", "values": [{"measurement": "binding result", "setting": "GST-mGFP-SH3BP2-FLAG", "value": "binds"}]}
